From publication PMC10733476, “OsDWARF10, transcriptionally repressed by OsSPL3, regulates the nutritional metabolism of polished rice”

Target: T1, OsSPL3 (Oryza sativa (indica, Minghui63; stated …, UniProt A2X0Q6 1-469)
T1 sequence: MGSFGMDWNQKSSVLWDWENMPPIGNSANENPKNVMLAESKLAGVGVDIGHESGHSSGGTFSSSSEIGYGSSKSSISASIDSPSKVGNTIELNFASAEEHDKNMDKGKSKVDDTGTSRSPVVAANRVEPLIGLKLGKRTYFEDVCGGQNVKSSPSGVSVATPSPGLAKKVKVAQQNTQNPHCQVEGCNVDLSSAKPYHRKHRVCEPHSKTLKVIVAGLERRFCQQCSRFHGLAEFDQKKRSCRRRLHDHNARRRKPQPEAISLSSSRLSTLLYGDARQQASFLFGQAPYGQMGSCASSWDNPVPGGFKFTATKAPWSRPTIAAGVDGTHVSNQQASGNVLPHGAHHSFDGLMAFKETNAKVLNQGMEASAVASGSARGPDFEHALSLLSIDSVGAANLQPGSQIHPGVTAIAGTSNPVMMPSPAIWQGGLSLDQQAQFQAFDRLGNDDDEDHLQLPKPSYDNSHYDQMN
Assay: EMSA; EMSA binding buffer (as printed, probably a concentrated stock): 125 mM Tris-HCl pH 8.0, 750 mM NaCl, 25 mM MgCl2, 100 mg/mL BSA, 50% glycerol, 5 mM DTT, 125 ng/uL salmon sperm DNA; 25 C, 20 min; 6% PAGE in 0.5x TG
Details: protein: recombinant; tags: N-terminal 6xHis (pET28A); label: 5' FAM on F strand; blunt

B1: D10 S2 (dsDNA)
DNA 1: CCACGCCCCACGTAACGTAGCGTACAGTGTACACCTGATTTCGCTCGGTC
DNA 2: GACCGAGCGAAATCAGGTGTACACTGTACGCTACGTTACGTGGGGCGTGG
B1: binds.

B2: D10 S1 (dsDNA)
DNA 1: CTCACACATGCTACTGATGATGTACGTACGGACGTTACGTAGCGCGCGGG
DNA 2: CCCGCGCGCTACGTAACGTCCGTACGTACATCATCAGTAGCATGTGTGAG
B2: binds.
